Measured values from patent US20240392035A1 (DENALI THERAPEUTICS, published 2024).

Assays:
[1] = molecular target: HER2 on HER2-overexpressing tumor cell lines (UniProt P04626 23-1255, limits assumed); test: cell-based or functional assay
human TfR on cells = human TfR on cells (human, UniProt P02786 1-760); test: cell-based or functional assay
[2] = molecular target: T1, recombinant human TfR apical domain (human, UniProt P02786 198-378); test: SPR (Biacore), protein captured on anti-human Fab chip, human TfR apical domain injected, 1:1 Langmuir fit
T1 construct: also called recombinant TfR apical domain; transferrin receptor protein 1
Procedure: Affinities of the bispecific proteins were measured by SPR using a Biacore T200 or a Biacore 8K. Biacore™ Series S CM5 sensor chips were immobilized with monoclonal mouse anti-human IgG (Fc) antibody for HER2 affinity measurements or mouse anti-human Fab for TfR affinity measurements (human antibody or Fab capture kit from GE Healthcare). Serial 3-fold dilutions of analyte (recombinant HER2 extracellular domain or recombinant TfR apical domain) were injected at a flow rate of […]. Each sample was analyzed using a 3-minute association and a 10-minute dissociation for HER2 extracellular domain binding and a 40-second association and a 3-minute dissociation for human TfR apical domain binding. After each injection, the chip was regenerated using 3 M MgCl₂ or 50 mM glycine at pH 2.0. Binding response was corrected by subtracting the RU from a flow cell capturing an irrelevant IgG at similar density. A 1:1 Languir model of simultaneous fitting of kon and koff was used for kinetics analysis. […] The two constructs are described below.

T1 sequence (P02786 198-378 limits assumed): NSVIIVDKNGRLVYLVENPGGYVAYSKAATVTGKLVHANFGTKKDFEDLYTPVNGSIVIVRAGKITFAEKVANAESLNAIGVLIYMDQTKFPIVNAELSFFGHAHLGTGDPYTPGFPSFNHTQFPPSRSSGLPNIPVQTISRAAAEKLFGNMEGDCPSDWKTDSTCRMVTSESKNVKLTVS

Row | Binder | maximum growth inhibition, OE19 cells, WST-1 assay [1] | maximum growth inhibition, OE19 cells, WST-1 assay (human TfR on cells) | Kd [2]
1 | anti-HER2_DIV/DII_scFv_1 (bispecific antibody, human IgG1, kappa, L234A L235A) heavy 1: EVQLVESGGGLVQPGGSLRLSCAASGFTFTDYTMDWVRQAPGKGLEWVADVNPNSGGSIYNQRFKGRFTLSVDRSKNTLYLQMNSLRAEDTAVYYCARNLGPSFYFDYWGQGTLVTVSSASTKGPSVFPLAPSSKSTSGGTAALGCLVKDYFPEPVTVSWNSGALTSGVHTFPAVLQSSGLYSLSSVVTVPSSSLGTQTYICNVNHKPSNTKVDKKVEPKSCDKTHTCPPCPAPEAAGGPSVFLFPPKPKDTLMISRTPEVTCVVVDVSHEDPEVKFNWYVDGVEVHNAKTKPREEQYNSTYRVVSVLTVLHQDWLNGKEYKCKVSNKALPAPIEKTISKAKGQPREPQVYTLPPSRDELTKNQVSLWCLVKGFYPSDIAVEWESYGTEWSNYKTTPPVLDSDGSFFLYSKLTVSKEEWQQGFVFSCSVMHEALHNHYTQKSLSLSPGK heavy 2: not shown light: not shown | ~80% | ~80% | 
2 | Bispecific Protein #9 (bispecific antibody, human IgG1, kappa, L234A L235A) heavy 1: EVQLVESGGGLVQPGGSLRLSCAASGFTFTDYTMDWVRQAPGKGLEWVADVNPNSGGSIYNQRFKGRFTLSVDRSKNTLYLQMNSLRAEDTAVYYCARNLGPSFYFDYWGQGTLVTVSSASTKGPSVFPLAPSSKSTSGGTAALGCLVKDYFPEPVTVSWNSGALTSGVHTFPAVLQSSGLYSLSSVVTVPSSSLGTQTYICNVNHKPSNTKVDKKVEPKSCDKTHTCPPCPAPEAAGGPSVFLFPPKPKDTLMISRTPEVTCVVVDVSHEDPEVKFNWYVDGVEVHNAKTKPREEQYNSTYRVVSVLTVLHQDWLNGKEYKCKVSNKALPAPIEKTISKAKGQPREPQVYTLPPSRDELTKNQVSLWCLVKGFYPSDIAVEWESYGTEWSNYKTTPPVLDSDGSFFLYSKLTVSKEEWQQGFVFSCSVMHEALHNHYTQKSLSLSPGK heavy 2: not shown light: not shown |  |  | 500 nM
3 | Bispecific Protein #2 (bispecific antibody, human IgG1, kappa, L234A L235A) heavy 1: EVQLVESGGGLVQPGGSLRLSCAASGFTFTDYTMDWVRQAPGKGLEWVADVNPNSGGSIYNQRFKGRFTLSVDRSKNTLYLQMNSLRAEDTAVYYCARNLGPSFYFDYWGQGTLVTVSSASTKGPSVFPLAPSSKSTSGGTAALGCLVKDYFPEPVTVSWNSGALTSGVHTFPAVLQSSGLYSLSSVVTVPSSSLGTQTYICNVNHKPSNTKVDKKVEPKSCDKTHTCPPCPAPEAAGGPSVFLFPPKPKDTLMISRTPEVTCVVVDVSHEDPEVKFNWYVDGVEVHNAKTKPREEQYNSTYRVVSVLTVLHQDWLNGKEYKCKVSNKALPAPIEKTISKAKGQPREPQVYTLPPSRDELTKNQVSLWCLVKGFYPSDIAVEWESYGTEWSNYKTTPPVLDSDGSFFLYSKLTVSKEEWQQGFVFSCSVMHEALHNHYTQKSLSLSPGK heavy 2: not shown light: not shown |  |  | 480 nM
